Data reported in EP2646050B1 (mAB-Factory GmbH, dated 2016).

What was measured:
Experiment in all cases: peptide SPOT membrane
[1] = molecular target: 15mer peptide 57 of H5 (A/Anhui/1/2005) (Influenza A virus A/Anhui/1/2005 (H5N1))
[2] = molecular target: 15mer peptide 55 of H5 (A/Anhui/1/2005) (Influenza A virus A/Anhui/1/2005 (H5N1))
[3] = molecular target: 15mer peptide 56 of H5 (A/Anhui/1/2005) (Influenza A virus A/Anhui/1/2005 (H5N1))

Measured: binding result

B1: scFv-murine IgG1 Fc fusion of clone 8 (JM6_SC-D3) (Fc fusion)
chain: MAAVTLDESGGGLQKPGGGLSLVCKASGFPFSSYSMQWVRQAPGKGLEWVAGIGNAGSYTGYGAAVKGRATISRDNGQSTVRLQLNNLRAEDTGTYYCAKSAYAGSCAGCVDSIDAWGHGTEVMVSSGSASAPKLEEGEFSEARVALTQPSSVSANPGETVKITCSGDDSWYGWYQQKSPGSAPVTVIYYNNNRPSDIPLRFSGSTSGSTSTLTITGVQADDEAVYFCGSWDRSSGAGIFGAGTTLTVLGAA
no binding: all assays above
